Assay results as given in patent US20210221907A1 (published 2021).
Substitutions are numbered along the chain they refer to.

T1: TROP2 on MDA-468 cells over-expressing TROP2 (TROP2+ MDA-468) (UniProt P09758 27-323)
T1 sequence (looked up): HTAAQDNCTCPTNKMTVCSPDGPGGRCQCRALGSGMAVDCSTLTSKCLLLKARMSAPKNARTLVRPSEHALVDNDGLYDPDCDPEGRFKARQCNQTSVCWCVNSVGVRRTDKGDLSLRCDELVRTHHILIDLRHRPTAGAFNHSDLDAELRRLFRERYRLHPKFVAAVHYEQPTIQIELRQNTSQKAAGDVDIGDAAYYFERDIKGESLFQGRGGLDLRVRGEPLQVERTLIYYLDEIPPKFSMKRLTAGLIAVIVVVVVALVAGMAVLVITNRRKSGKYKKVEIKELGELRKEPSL

T2: recombinant TROP2 protein (UniProt P09758 27-274, limits assumed)
T2 construct: also called rProtein
T2 sequence (looked up): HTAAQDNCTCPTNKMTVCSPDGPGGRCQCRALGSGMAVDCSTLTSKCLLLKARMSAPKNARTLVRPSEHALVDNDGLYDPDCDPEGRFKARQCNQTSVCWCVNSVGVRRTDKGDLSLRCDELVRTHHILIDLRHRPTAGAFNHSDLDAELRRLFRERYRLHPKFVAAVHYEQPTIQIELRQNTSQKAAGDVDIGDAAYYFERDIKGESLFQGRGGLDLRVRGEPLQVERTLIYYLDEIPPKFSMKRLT

B1: TROP2-Ab8 (antibody, V domains shown)
VH: QVQLQQSGPEVVKPGASVKMSCKASGYRFTDYVINWVKQRTGQGLEWIGQIYPGSDSFHYNKNFKGKATLTADKSSNTAYMQLNSLTSEDSAVYFCARFFEGLAYWGQGTLVTVSA
VL: DIKMTQSPSSMYAFLGERVTITCKASQGINNYLSWFQLKPGKSPKSLIYRANRLVDGVPSRFSGSGSGQDYSLTISSLDYEDMGIYYCLQYDEFPLTFGGGTKLELK
notes: Monoclonal antibody from a hybridoma clone
B2: TROP2-Ab22 (antibody, V domains shown)
VH: QVQLQQSGPELVKPGASVKMSCKASGYTFTDYVINWVKQRPGQGLEWVGQIYPGSDGTYYNEPFKGEATLTADKSSNTAYMQLSSLTSEDSAVYFCARFFEGFAYWGQGTLVTVSA
VL: B1 VL with Y12F, F14S, G28D, N31W, L38Q, S46T, I85V, D92E, G100A
notes: as for B1
B3: TROP2-Ab7 (antibody, V domains shown)
VH: B1 VH with T41S, S57T, L103F
VL: B1 VL with Q37H, M83V
notes: Monoclonal antibody from a hybridoma clone (V regions amplified with mouse Ig primers)
B4: TROP2-Ab51 (antibody, V domains shown)
VH: B1 VH with K23R, L103F
VL: B1 VL
notes: as for B1
B5: TROP2-Ab46 (antibody, V domains shown)
VH: QVQLQQPGAELVRPGASVRLSCKSSGYTFTSYWINWVKQRPGQGLEWIGNIFPSHSYTNYNQKFRDKATLTVDKSSSTAYLQLSSPTSDDSAVYYCTRGSGFDYWGQGTALTVSS
VL: DILLTQSPAILSVSPGERVSFSCRASQNIGTSIHWYQQRTNGSPRLLISYASESISGIPSRFSGSGSGTDFTLIINSVESEDIADYYCQHSYSWPFTFGSGTKLEVK
notes: as for B1
B6: TROP2-Ab50 (antibody, V domains shown)
VH: QVQLQQSGAELVRPGTSVKISCKASGYTFTNYWLDWIKQRPGQGLEWIGNIFPGGDYTNYNEEFRGKATLTADTSSRTAFMQLSSLTSEDSAVYFCARSSYDYWGQGTLVTVSA
VL: B5 VL with S49K, A51S, T72S, I74T, A84G, S93T, V106I
notes: Monoclonal antibody from a hybridoma clone; also called TROP2 -Ab0

biological target: T1, TROP2 on MDA-468 cells over-expressing …; test: cell-based or functional assay

Compared with B1, B2 is higher in “Indirect Cytotoxicity Cell viability %” value: 26% for the first, 34% for the second.

First: B3
Second: B4
The “Indirect Cytotoxicity Cell viability %” value of the first is lower: 34% for the first, 39% for the second.

First: B5
Second: B6
The “Indirect Cytotoxicity Cell viability %” value of the first is lower: 27% for the first, 45% for the second.

Going from B1 to B2, the “Indirect Cytotoxicity IC50” value rises from 0.0271 nM to 0.0587 nM (2.2-fold).

B3 and B4 are within 1.5-fold of each other in “Indirect Cytotoxicity IC50” value: 0.044 nM for the first, 0.0567 nM for the second.

B5 and B6 are within 1.5-fold of each other in “Indirect Cytotoxicity IC50” value: 0.0672 nM for the first, 0.0992 nM for the second.

biological target: T2, recombinant TROP2 protein; test: ELISA titration, antibody with varying concentrations of recombinant TROP2 protein
Procedure: Antibodies were tested in an antigen binding assay using ELISA titration experiments. Antibodies were incubated with varying concentrations of recombinant TROP2 protein [rProtein].

Compared with B1, B2 is higher in “rProtein ELISA Affinity” value: < 0.1 nM for the first, 0.19 nM for the second.

Going from B3 to B4, the “rProtein ELISA Affinity” value falls from 0.1 nM to < 0.1 nM.

B5 and B6 cannot be ordered by “rProtein ELISA Affinity” value: < 0.1 nM for the first, < 0.1 nM for the second.
